Target: human STING C-terminal domain (CTD) containing residues 155 to 341 (human) (UniProt Q86WV6)
Experiment: SEC

“human STING C-terminal domain (CTD) containing residues 155 to 341 (from UniProt Q86WV6 155-341) (domain or fragment)” gave a stoichiometry N of 2.

From paper PMC3392545
